Test results: US20130171217A1, “ENZYMATIC PERACID GENERATION FOR USE IN SKIN CARE PRODUCTS” (E I DU PONT DE NEMOURS AND COMPANY, priority 2010, published 2013)

What was measured:
[1] = Two-step treatment of hair tresses, color loss ΔE; conditions: for Color loss ΔE: 0.75 M H2O2, 1 M TA; for ΔE of color loss: 2500 μg/mL
Experimental: After every fourth cycle the tresses were dried under air and color measurements were made using X-RITE® SP64 spectrophotometer (X-Rite, Grandville, Mich.) with 4 mm port. Color numbers were measured at D65/10° from reflectance, according to CIELAB76. Hair tresses (all 4 replicates) were placed under a card paper with punched out holes, making sure that the background was not visible. The port-hole of the spectrophotometer was centered on the hole to scan the hair sample underneath. The tress-bundle was turned over and placed under the card and an additional measurement was made. Average L*, a*, b* (color according to CIELAB76) values were recorded.
ΔE of color loss was calculated according to the following formula:
ΔE=√{square root over (((L1*−L0)̂2+(a1*−a0)̂2+(b1*−b0)̂2))}{square root over (((L1*−L0)̂2+(a1*−a0)̂2+(b1*−b0)̂2))}{square root over (((L1*−L0)̂2+(a1*−a0)̂2+(b1*−b0)̂2))}
L1*, a1* and b1* are L*, a* and b* values for a sample tress after treatment, L0*, a0* and b0* are L*, a* and b* values for untreated hair

[2] = Assay for bound perhydrolase enzyme activity after treatment cycles (ABTS); type: binding
Experimental: The enzyme used in the following example was HC1121 (T. maritima C277S-HC263; SEQ ID NO: 288) and concentration used was 2500 μg/mL (E/H=10*). Enzyme solution was made in 5% TWEEN®-20 surfactant in 50 mM citrate buffer at pH 6. Approximately 0.8 mL of the enzyme solution was applied on ˜200 mg hair samples (4 test tresses) for 10 minutes. H2O2 and triacetin, formulations were made according to Example 24, in 20% LUBRIDERM® lotion in 50 mM citrate buffer at pH 6. After application of 400 μL each of the reagents, the treatment was allowed to continue for 20 minutes after which the hair was rinsed with tap-water and allowed to dry. Before proceeding with the next cycle the sample was subjected to the surfactant wash with 5% TWEEN®-20 in 50 mM citrate buffer at pH 6 and rinsed with tap-water.
After treatment for a defined number of cycles, 10 mg of hair was cut from each tress and placed into 2 mL microcentrifuge tubes (Eppendorf Protein LoBind; Eppendorf North America, Hauppauge, N.Y.). To each tube was added 480 uL of PAH buffer (50 mM potassium phosphate pH 7.2), 14 μL of 30% hydrogen peroxide (Sigma 3410), and 6 μL triacetin (Sigma-Aldrich, W200700). The perhydrolase reaction was allowed to proceed for 10 minutes at 25° C. The reaction was stopped by diluting aliquots 10×, 100× and 1000× with 10 mM phosphoric acid. For detection, 50 μL of 1 M acetic acid, 50 μL of 40 mg/mL potassium iodide, and 50 μL of 4 mM ABTS (2,2′-azino-bis(3-ethylbenzthiazoline-6-sulphonic acid; Sigma, St Louis, Mo.) were added to 50 μL of the above dilutions. Color was allowed to develop for 10 minutes and read in a spectrophotometer at 405 nm. Values from no-enzyme controls were subtracted to yield values attributable only to enzyme activity. A standard curve of OD 405 nm vs PAA concentration in ppm yielded a conversion factor of 8.75, such that an OD 405 nm of 1.0 corresponded to approximately 8.75 ppm PAA. This value was then multiplied by the appropriate dilution to arrive at the PAA concentration in the perhydrolase reaction.

B1: C277S-HC263: C277S variant of Thermotoga maritima perhydrolase fused via a flexible linker to hair-binding domain HC263 (protein)
chain: MAFFDLPLEELKKYRPERYEEKDFDEFWEETLAESEKFPLDPVFERMESHLKTVEAYDVTFSGYRGQRIKGWLLVPKLEEEKLPCVVQYIGYNGGRGFPHDWLFWPSMGYICFVMDTRGQGSGWLKGDTPDYPEGPVDPQYPGFMTRGILDPRTYYYRRVFTDAVRAVEAAASFPQVDQERIVIAGGSQGGGIALAVSALSKKAKALLCDVPFLCHFRRAVQLVDTHPYAEITNFLKTHRDKEEIVFRTLSYFDGVNFAARAKIPALFSVGLMDNISPPSTVFAAYNYYAGPKEIRIYPYNNHEGGGSFQAVEQVKFLKKLFEKGGPGSGGAGSPGSAGGPGSPSAQSQLPDKHSGLHERAPQRYGPEPEPEPEPIPEPPKEAPVVIEKPKPKPKPKPKPPAHDHKNQKETHQRHAAGSGGGGSPHHHHHH
- Color loss ΔE ([1]; 750 μg/mL (E/H 3), 40 min/cycle): 8
- Color loss ΔE ([1]; 1500 μg/mL (E/H 5), 20 min/cycle): 7
- Color loss ΔE ([1]; 1750 μg/mL (E/H 7), 40 min/cycle): 10
- Color loss ΔE ([1]; 2500 μg/mL (E/H 10), 20 min/cycle): 10
- Color loss ΔE ([1]; 2500 μg/mL (E/H 10), 40 min/cycle): 9
- ΔE of color loss ([1]; 4 cycles): 4
- ΔE of color loss ([1]; 8 cycles): 6
- ΔE of color loss ([1]; 12 cycles): 8
- ΔE of color loss ([1]; 16 cycles): 11
- OD 405nm ([2]; 10 mg hair after 1 cycle): 0.172
- PAA ([2]; 10 mg hair after 1 cycle, 10 min reaction): 150.8 ppm
- OD 405nm ([2]; 10 mg hair after 4 cycles): 0.439
- PAA ([2]; 10 mg hair after 4 cycles): 384.1 ppm
- OD 405nm ([2]; 10 mg hair after 8 cycles): 0.901
- PAA ([2]; 10 mg hair after 8 cycles): 788.4 ppm
- OD 405nm ([2]; 10 mg hair after 12 cycles): 1.287
- PAA ([2]; 10 mg hair after 12 cycles): 1126.1 ppm
- OD 405nm ([2]; 10 mg hair after 16 cycles): 1.894
- PAA ([2]; 10 mg hair after 16 cycles): 1657 ppm
